Our source for the protein stability index values is the supplement of paper PMC10567573.

B1: DLC1 (parent)
chain: HVTHWMGQPFNSDDRNTACHHGLV
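Further: lentivirally expressed fusions sorted by FACS into six bins by GFP to DsRed ratio, PSI derived from sequencing read proportions per bin multiplied by bin number.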

The variants in the series derive from B1. In words: protein stability index of a GFP-peptide fusion (GPS, HEK-293T) (PSI 1-6); higher = more stable. The following applies: c terminus: a fixed tail appended.
On to HPTHWMGQPFNSDDRNTACHHGLV, for which the protein stability index is 3.15.

As to HHTHWMGQPFNSDDRNTACHHGLV, the protein stability index was 2.35.

Consider HATHWMGQPFNSDDRNTACHHGLV, for which the protein stability index amounted to 2.8.

In the case of HDTHWMGQPFNSDDRNTACHHGLV, the protein stability index came to 3.76.

MVTHWMGQPFNSDDRNTACHHGLV: the protein stability index came to 2.5.

Take NVTHWMGQPFNSDDRNTACHHGLV: the protein stability index is 2.76.

For the variant IVTHWMGQPFNSDDRNTACHHGLV, the protein stability index amounted to 1.83.

In the case of YVTHWMGQPFNSDDRNTACHHGLV, the protein stability index was 3.14.

On to LVTHWMGQPFNSDDRNTACHHGLV, for which the protein stability index came out at 2.14.

For the variant FVTHWMGQPFNSDDRNTACHHGLV, the protein stability index was 1.89.

TVTHWMGQPFNSDDRNTACHHGLV: the protein stability index was 2.91.

With RVTHWMGQPFNSDDRNTACHHGLV, the protein stability index came out at 2.31.

In the case of HVTHWMIQPFNSDDRNTACHHGLV, the protein stability index came out at 2.03.

With HVTHWMSQPFNSDDRNTACHHGLV, the protein stability index was determined as 1.65.

HVTHWMLQPFNSDDRNTACHHGLV: the protein stability index came to 2.26.

In the case of HVTHWMEQPFNSDDRNTACHHGLV, the protein stability index amounted to 2.63.

HVTHWMMQPFNSDDRNTACHHGLV: the protein stability index is 1.39.

For the variant HVTHWMVQPFNSDDRNTACHHGLV, the protein stability index stood at 1.84.

Regarding HVTHWMGQPFNSDDRNTKCHHGLV, the protein stability index stood at 1.94.

Turning to HVTHWMGQPFNSDDRNTNCHHGLV, the protein stability index was 2.44.

With HVTHWMGQPFNSDDRNTTCHHGLV, the protein stability index came to 2.09.

In the case of HVTHWMGQPFNSDDRNTDCHHGLV, the protein stability index stood at 2.69.

On to HVTHWMGQPFNSDDRNTVCHHGLV, for which the protein stability index was 2.33.

HVTHWMGQPFNSDDRNTGCHHGLV: the protein stability index turned out to be 2.06.

On to HVTHWMGQPFNSDDRNTRCHHGLV, for which the protein stability index is 2.

HVTHWMGQPFNSDDRNTECHHGLV: the protein stability index came out at 2.53.

With HVTHWMGQPFNSDDRNTHCHHGLV, the protein stability index was 2.25.

In the case of HVTHWMGQPFNSDDRNTSCHHGLV, the protein stability index was 2.21.

Consider HVTHWMGQPFNSDDRNTCCHHGLV, for which the protein stability index came to 1.83.

On to HVTHWMGQPFNSDDRNSACHHGLV, for which the protein stability index amounted to 2.36.

In the case of HVTHWMGQPFNSDDRNLACHHGLV, the protein stability index amounted to 1.68.

In the case of HVTHWMGQPFNSDDRNYACHHGLV, the protein stability index was 1.86.

For HVTHWMGQPFNSDDRNNACHHGLV, the protein stability index stood at 2.21.

Turning to HVTHWMGQPFNSDDRNAACHHGLV, the protein stability index came out at 1.99.

In the case of HVTHWMGQPFNSDDRNIACHHGLV, the protein stability index was determined as 2.25.

HVTHWMGQPFNSDDRNRACHHGLV: the protein stability index was determined as 1.99.

Take HVTHWMGQPFNSDDRNGACHHGLV: the protein stability index was 2.04.

Regarding HVTHWMGQPFNSDDRNHACHHGLV, the protein stability index is 2.23.

As to HVTHWMGQPQNSDDRNTACHHGLV, the protein stability index was found to be 2.5.

With HVTHWMGQPKNSDDRNTACHHGLV, the protein stability index stood at 2.78.

In the case of HVTHWMGQPENSDDRNTACHHGLV, the protein stability index amounted to 2.75.

As for HVTHWMGQPSNSDDRNTACHHGLV, the protein stability index is 2.35.

For the variant HVTHWMGQPTNSDDRNTACHHGLV, the protein stability index was found to be 2.29.

On to HVTHWMGQPHNSDDRNTACHHGLV, for which the protein stability index amounted to 2.05.

Regarding HVTHWMGQPPNSDDRNTACHHGLV, the protein stability index was 2.54.

For HVTHWMGQPGNSDDRNTACHHGLV, the protein stability index amounted to 2.77.

In the case of HVTHWMGQPLNSDDRNTACHHGLV, the protein stability index came out at 2.01.

For the variant HVTHWMGQPCNSDDRNTACHHGLV, the protein stability index worked out at 1.94.

Turning to HVTHWMGQPNNSDDRNTACHHGLV, the protein stability index was 2.86.

Regarding HVTHWMGQPRNSDDRNTACHHGLV, the protein stability index was determined as 2.79.

For HVTHWMGQPFNSDDRNTACHSGLV, the protein stability index was found to be 2.23.

As for HVTHWMGQPFNSDDRNTACHTGLV, the protein stability index is 2.02.

Turning to HVTHWMGQPFNSDDRNTACHMGLV, the protein stability index worked out at 2.21.

In the case of HVTHWMGQPFNSDDRNTACHIGLV, the protein stability index is 1.85.

Consider HVTHWMGQPFNSDDRNTACHDGLV, for which the protein stability index stood at 2.58.

Regarding HVTHWMGQPFNSDDRNTACHKGLV, the protein stability index turned out to be 2.7.

Turning to HVTHWMGQPFNSDDRNTACHRGLV, the protein stability index stood at 2.26.

As for HVTHWMGQPFNSDDRNTACHQGLV, the protein stability index amounted to 2.44.

Turning to HVTHWMGQPFNSDDRNTACHNGLV, the protein stability index is 2.66.

For HVTHWMGQTFNSDDRNTACHHGLV, the protein stability index amounted to 2.29.

Turning to HVTHWMGQCFNSDDRNTACHHGLV, the protein stability index came to 1.75.

Consider HVTHWMGQYFNSDDRNTACHHGLV, for which the protein stability index came to 2.43.

As for HVTHWMGQIFNSDDRNTACHHGLV, the protein stability index turned out to be 1.75.

For the variant HVTHWMGQSFNSDDRNTACHHGLV, the protein stability index was determined as 2.06.

Turning to HVTHWMGQKFNSDDRNTACHHGLV, the protein stability index worked out at 1.9.

Turning to HVTHWMGQQFNSDDRNTACHHGLV, the protein stability index amounted to 2.4.

Turning to HVTHWMGQLFNSDDRNTACHHGLV, the protein stability index is 2.

As for HVTHWMGQPFNSDERNTACHHGLV, the protein stability index was 1.7.

For HVTHWMGQPFNSDARNTACHHGLV, the protein stability index amounted to 1.9.

Turning to HVTHWMGQPFNSDCRNTACHHGLV, the protein stability index stood at 1.68.

Take HVTHWMGQPFNSDKRNTACHHGLV: the protein stability index was 1.47.

As for HVTHWMGQPFNSDPRNTACHHGLV, the protein stability index turned out to be 2.16.

For HVTHWMGQPFNSDIRNTACHHGLV, the protein stability index is 1.53.

In the case of HVTHWMGQPFNSDWRNTACHHGLV, the protein stability index was found to be 1.65.

Consider HVTHWMGQPFNSDYRNTACHHGLV, for which the protein stability index was found to be 1.44.

HVTHWMGQPFNSDNRNTACHHGLV: the protein stability index came out at 1.86.

As to HVTHWMGQPFNSDSRNTACHHGLV, the protein stability index was determined as 1.83.

HVTHWMGMPFNSDDRNTACHHGLV: the protein stability index came to 1.28.

As for HVTHWMGRPFNSDDRNTACHHGLV, the protein stability index is 2.15.

HVTHWMGDPFNSDDRNTACHHGLV: the protein stability index came to 2.03.

Consider HVTHWMGWPFNSDDRNTACHHGLV, for which the protein stability index was determined as 1.55.

For HVTHWMGPPFNSDDRNTACHHGLV, the protein stability index was found to be 2.1.

On to HVTHWMGVPFNSDDRNTACHHGLV, for which the protein stability index was 1.77.

As to HVTHWMGCPFNSDDRNTACHHGLV, the protein stability index is 2.14.

HVMHWMGQPFNSDDRNTACHHGLV: the protein stability index turned out to be 2.05.

On to HVIHWMGQPFNSDDRNTACHHGLV, for which the protein stability index amounted to 2.01.

Take HVEHWMGQPFNSDDRNTACHHGLV: the protein stability index is 2.38.

Regarding HVNHWMGQPFNSDDRNTACHHGLV, the protein stability index worked out at 1.99.

Take HVTHWMGQPFNSDDRNTACHHGLF: the protein stability index worked out at 1.45.

As to HVTHWMGQPFNSDDRNTACHHGLN, the protein stability index is 2.05.

For the variant HVTHWMGQPFNSDDRNTACHHGLH, the protein stability index stood at 2.28.

As for HVTHWMGQPFNSDDRNTACHHGLP, the protein stability index was found to be 2.22.

As for HVTHWMGQPFNSDDRNTACHHGLW, the protein stability index stood at 2.09.

Consider HVTHWMGQPFNSDDRNTACHHGLL, for which the protein stability index was 2.35.
